Test results taken from patent publication US20140370037A1 (published 2014).

T1: human DLL3 antigen (human, UniProt Q9NYJ7 27-492)
T1 chain: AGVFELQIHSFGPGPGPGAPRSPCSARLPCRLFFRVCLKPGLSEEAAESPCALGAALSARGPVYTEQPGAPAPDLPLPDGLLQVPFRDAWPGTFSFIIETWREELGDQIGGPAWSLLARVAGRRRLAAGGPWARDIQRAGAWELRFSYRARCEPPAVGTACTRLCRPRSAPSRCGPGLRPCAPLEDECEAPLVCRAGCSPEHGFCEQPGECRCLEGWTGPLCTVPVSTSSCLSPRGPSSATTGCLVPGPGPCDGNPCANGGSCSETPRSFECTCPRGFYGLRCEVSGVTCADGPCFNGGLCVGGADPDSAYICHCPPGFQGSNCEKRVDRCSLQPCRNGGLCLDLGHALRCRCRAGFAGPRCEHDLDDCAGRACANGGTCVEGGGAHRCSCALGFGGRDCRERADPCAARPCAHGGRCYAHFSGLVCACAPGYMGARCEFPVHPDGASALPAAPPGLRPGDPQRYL


Experiments:
[1] = target: T1, human DLL3 antigen; assay: Biacore SPR
[2] = target: T1, human DLL3 antigen; assay: SPR
[3] = target: T1, human DLL3 antigen; assay: ForteBio
[4] = target: T1, human DLL3 antigen; assay: ForteBio

Binder | Kd [1] [nM] | Kd [2] [nM] | further results
SC16.15 (antibody, V domains shown) VH: QVQLQQSGAELAKPGASVKMSCKASGYTFTRYWIHWIKQRPGQGLEWIGYINPTTVYTEFNQNFKDKATLTADKSSTTASMQLSSLTSEDSAVYYCARGGSNFFDYWGQGTTLTVSS VL: DIQMTQSPASLAASVGETVAITCRASENIYYNLAWYQQKQGKSPQLLIYTANSLEDGVPSRFSGSGSGTQYSLKINSMQPEDSATYFCKQAYDVPPTFGGGTKLEIK | 0.5 | – | –
SC16.25 (antibody, V domains shown) VH: QVTLKESGPGILQPSQTLSLTCSFSGFSLSTSGMGVGWIRQPSGEGLEWLTDIWWDDNKYYNPSLKSRLTISKDTSSNQVFLNITSVDTADTATYYCARRVNYYYDPYYAMDYWGQGTSVTVSS VL: QIVLTQSPAIMSASPGEKVTMTCSASSSVSYMHWYQQKSGTSPKRWIYDSSKLASGVPARFSGSGSGTSYSLTISSMEAEDAATYYCQQWSSNPLTFGAGTKLELK | 0.2 | < 0.2 | –
SC16.4 (antibody, V domains shown) VH: QIQLVQSGPELKKPGETVKISCKASGYTFTDYSMHWVKQAPGKGLKWMGWINTETGEPGYADDFKGRFAFSLETSASTAYLQINNLKNEDTATYFCARYDGYAMDYWGQGTSVTVSS VL: DIQMTQTTSSLSASLGDRVTISCRASQDISNYLNWYQQKPDGTVKLLIYYTSRLHSGVPSRFSGSGSGTDYSLTISNLELEDIATYFCQQGDMLPWTFGGGTKLEIK | – | – | Kd [3]: 0.5 nM
SC16.39 (antibody, V domains shown) VH: EVKLEESGGGLVQFGGSMKLSCAASGFTFSDAWMDWVRQSPEKGLEWVAEIRNKANNHATYYPESVKGRFTISRDDSKSRVYLQMNNLRAEDTGIYYCTGYSSFAYWGQGTLVTVSA VL: DIQMTQTTSSLSASLGDRVTISCRASQDVINYLNWYQQKPDGTVKLLIYYTSRLHSGVPSRFSGSGSRTDYSLTISNLEPEDIATYYCQQYSERPYTFGGGTKLEIK | – | – | Kd [4]: 1 nM
SC16.67 (antibody, V domains shown) VH: EVQLVETGGGLVQPKGSLKLSCAVSAFTFTTYAMNWVRQAPGKGLEWVARIRNKSNNYATYYADSVKDRFTISRDDSQSMLYLQMNNLKIEDTAMYYCVFYYDYVYWGQGTLVTVSA VL: QAVVTQESALTTSPGETVTLTCRSSTGAVTTSNYANWIQEKPDHLFTGLIGGTNNRAPGVPARFSGSLIGDKAALTITGAQTEDEAIYFCGLWYSNHLVFGGGTKLTVL | – | – | Kd [3]: 0.5 nM
SC16.13 (antibody, V domains shown) VH: QVTLKESGPGILQPSQTLSLTCSFSGFSLSTSGMGVGWIRQPSGKGLEWLAHIWWDDVKRYNPALKSRLTISKDTSSSQVFLKIASVDTADTATYYCARIVSFDNDVVSAMDYWGQGTSVTVSS VL: QIVLTQSPALVSASPGEKVTMTCSASSSVSYMYWYQQKPRSSPKPWIYLTSNLASGVPARFSGSGSGTSYSLTISSMEAEDAATYYCQQWRSNPFTFGSGTKLEIK | 2 | 0.3 | –
SC16.10 (antibody, V domains shown) VH: QVTLKESGPGILQSSQTLSLTCSFSGFSLSTSGMGVGWIRQPSGKGLEWLAHIWWDDVKRYNPVLKSRLTISKDTSSSQVFLKIASVDTADTATYYCARLVDDLYYFDYWGQGTTLTVSS VL: QIVLTQSPAIMSASLGERVTMTCTASSSVSSSYLHWYQQKPGSSPKLWIYSTSNLASGVPTRFSGSGSGTSYSLTISSMEAEDAATYYCHQYHRSPFTFGSGTKLEIK | – | – | Kd [3]: 4 nM
SC16.8 (antibody, V domains shown) VH: QAQLQQSGAELVRPGTSVKVSCKASGYAFTNYLIEWVKQRPGQGLEWIGVINPGTGGTNYNENFKGKATLTADKSSSTAYMQLSSLTSDDSAVYFCARSPYDYHEGAMDYWGQGTSVTVSS VL: EIQMTQSPSSMSASLGDRITITCQATQDIVKNLNWYQQKPGKPPSFLIYYAIELAEGVPSRFSGSGSGSDYSLTISNLESEDFADYYCLQFYEFPFTFGAGTKLELK | – | – | Kd [3]: 0.5 nM

Second part, led by results:

Kd [1] [nM] | Kd [2] [nM] | Binder | further results
0.9 | – | SC16.65 (antibody, V domains shown) VH: QVTLKESGPGILQPSQTLSLTCSFSGFSLSTSGMGVGWIRQPSGKGLEWLALIWWDDVKRYNPALKSRLTISKDASSSQVFLKIASVDTADTATYYCARIASYDYDVVYAMDYWGQGTSVSVSS VL: QIVLTQSPALMSASPGEKVTMTCSVTSSVSYMYWYQQKPRSSPKPWIYLTSNLASGVPARFSGSGSGTSYSLTISSVEAEDAATYYCQQWRNNPFTFGSGTKVEIK | –
– | < 0.2 | hSC16.25 (antibody, V domains shown) VL: EIVLTQSPDFQSVTPKEKVTITCSASSSVSYMHWYQQKPDQSPKLLIKDSSKLASGVPSRFSGSGSGTDFTLTINSLEAEDAATYYCQQWSSNPLTFGQGTKLEIK V domain: QITLKESGPTLVKPTQTLTLTCTFSGFSLSTSGMGVGWIRQPPGKALEWLTDIWWDDNKYYNPSLKSRLTITKDTSKNQVVLTMTNMDPVDTATYYCARRVNYYYDPYYAMDYWGQGTTLVTVS | –
– | 0.9 | hSC16.34 (antibody, V domains shown) VH: QVQLVQSGAEVKKPGASVKVSCKASGYTFTNYGMNWVRQAPGQRLEWMGWINTYTGDPTYADDFKGRVTITRDTSASTAYMELSSLRSEDTAVYYCARIGGNSPSDYWGQGTTVTVSS VL: DIQMTQSPSSLSASVGDRVTITCKASQSVSNDVAWYQQKPGKVPKLLIYYASNRYSGVPSRFSGSGSGTDFTLTISSLQPEDVATYFCQQDYSSPWTFGGGTKVEIK | –
– | 0.5 | hSC16.56 (antibody, V domains shown) VH: QVQLVQSGAEVKKPGASVKVSCKASGYTFTNYGMNWVRQAPGQGLEWMGWINTYTGEPTYADDFKGRVTMTTDTSTSTAYMELRSLRSDDTAVYYCARIGDSSPSDYWGQGTLVTVSS VL: EIVMTQSPATLSVSPGERATLSCKASQSVSNDVVWYQQKPGQAPRLLIYYASNRYTGIPARFSGSGSGTEFTLTISSLQSEDFAVYYCQQDYTSPWTFGQGTKLEIKR | –
– | 0.5 | hSC16.13 (antibody, V domains shown) VH: QITLKESGPTLVKPTQTLTLTCTFSGFSLSTSGMGVGWIRQPPGKALEWLAHIWWDDVKRYSPSLKSRLTITKDTSKNQVVLTMTNMDPVDTATYYCARIVSFDNDVVSAMDYWGQGTLVTVSS VL: DIQMTQSPSSLSASVGDRVTITCSASSSVSYMYWYQQKPGKAPKLLIYLTSNLASGVPSRFSGSGSGTDFTLTISSLQPEDFATYYCQQWRSNPFTFGQGTKLEIKR | –
0.2 | 0.6 | SC16.34 (antibody, V domains shown) VH: QIQLVQSGPELKRPGETVKISCKASGYTFTNYGMNWVKQAPGKGLKWMGWINTYTGDPTYADDFKGRFAFSLETSASTAYLQINNLKNEDTATYFCARIGGNSPSDYWGQGTSLTVSS VL: SIVMTQTPKFLLVSAGDRVTITCKASQSVSNDVAWYQQKPGQSPKLLIYYASNRYSGVPDRFTGSGYGTDFTFTISTVQAEDLAVYFCQQDYSSPWTFGGGTKLEIK | –
1 | 0.5 | SC16.56 (antibody, V domains shown) VH: QIQLVQSGPELKKPGETVKISCKASGYTFTNYGMNWVKQAPGKGLKWMAWINTYTGEPTYADDFKGRFAFSLETSASTASLQIINLKNEDTATYFCARIGDSSPSDYWGQGTTLTVSS VL: SIVMTQTPKFLLVSAGDRVTITCKASQSVSNDVVWYQQKPGQSPKLLIYYASNRYTGVPDRFAGSGYGTDFSFTISTVQAEDLAVYFCQQDYTSPWTFGGGTKLEIR | –
– | 0.2 | hSC16.15 (antibody, V domains shown) VH: QVQLVQSGAEVKKPGASVKVSCKASGYTFTRYWIHWIRQAPGQGLEWMGYINPTTVYTEFNQNFKDRVTMTRDTSTSTVYMELSSLRSEDTAVYYCARGGSNFFDYWGQGTTVTVSS VL: AIQLTQSPSSLSASVGDRVTITCRASENIYYNLAWYQQKPGKAPKLLIYTANSLEDGVPSRFSGSGSGTDFTLTISSLQPEDFATYFCKQAYDVPPTFGGGTKLEIK | –
